Source: the nanobody polyreactivity screen of Harvey et al. (2022)

assay: yeast display, Sf9 membrane polyspecificity reagent, FACS + sequencing; frameworks hold sequencing errors
Method in brief: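 Synthetic nanobody libraries on Saccharomyces cerevisiae BJ5465 were galactose-induced for 36–48 hours, stained 1 hour at 4 °C with 10% biotinylated, detergent-solubilized Sf9 membrane reagent and enriched on streptavidin microbeads. FACS then separated cells into low and high (top ~1%) gates by anti-HA (expression) and streptavidin (reagent binding) fluorescence. Genes were colony-PCR amplified, MiSeq 2 × 250 sequenced and CDR-length filtered. A clone's polyreactivity label is that of its gate of origin.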

Sequence	polyreactivity (PSR sort gate)
QVQLVESVGGLVQAGASLPLSCAASGRIFPYYAMGWYRQAPGKESEFVAAITKRGGSTSYADSVKGRFTISRDNAKNTVYLQMNSLKPEDTAVYYCAARRGSGFFTYYGGAFWGQGTLVTVSS	low polyreactivity
QVQLVESVGGLVQAGASLRLSCAASGLNIYTYAMGWYRQAPGKERELVAAIRWRGGRTYYADSVNGRFTISRDNAKNTVYLQMNSLKPEDTAVYYCAADYSNLYKSDYWGQGTQVTLSS	low polyreactivity
QVQLVESVGGLVQAGCTLPLSCAASGLIFYLYAMGWYRQATGKERELVARISRGGSTNYADSVKGRFTISRDNAKNTVYLQMNSLNPDDTAVYYCAADWFFSLGEMYYWGQGTQVTVSS	low polyreactivity
QVQLVESVGGLVQAGGRLRLSCAASGSTFPRYTRGWYRQAPGKERELVAAISSRGGSTIYADSVKGRFTNSRDNAMNTVYLEMNSLKPEDSAVYYCAARRASRDGYWGQGTQVTVSS	high polyreactivity
QVQLVESVGGLVQAGGSLPLSCAASGRTFTSYAMGWYRQAPGKERELVAAINYSGGSTYYADSVKGRFTISRDNAKNTVYLQMNSLKPEETAVYYCAKSSHAREYYYWGQGTQVTVSS	low polyreactivity
QVQLVESVGGLVQAGGSLRIICAASGSIFTDNAMGWYRQAPGTERELVAAISRSGGNTYYADSVKGRFTISRDNAKNTVYLQMNSLKPEDTAVYYCAARQKGTGNYWGQGTQVTVSS	high polyreactivity
QVQLVESVGGLVQAGGSLRLICAASGSTIFYNAMGWYRQAPGKERELVAAISWSGGRTYYADSVKGRFTISRDNAKNTVYLQMYRLKPEDNAVYYCNTVVSKYYKVGFGSWGQGTQVTVSS	high polyreactivity
QVQLVESVGGLVQAGGSLRLSCAASGFIFRKYVMGLYIQAPGKERELVAAITRSCTSTYYADSVKGRFTISRDNAKNTVYLQMNSLKPEDTAVYYCNVGSDGWYYWGQGTQVTVSS	low polyreactivity
QVQLVESVGGLVQAGGSLRLSCAASGFIFWDNAMGWYRQAPGKERELVAAISKSGTRTYYADSVKGRFTISRDNAKNTVYLQMNSLKPEDTAVYSCAAEGSGYEYYYWGQGTQVTVSS	high polyreactivity
QVQLVESVGGLVQAGGSLRLSCAASGFIQGAYAMGWYRPAPGKERELVAAITSSGGSTYYADSVKGRFTISRDNAKNTVYLQMNSLKPEDTAVYYCNTVYVYGPEYDYWGQGTQVTVSS	high polyreactivity
QVQLVESVGGLVQAGGSLRLSCAASGFIVSTYAMGWYRQAPGKERELVAAITNSGGSTYYADSVKGRFTISRDNAKNTVYLQMNSLKPEDTAVYYCARRRSYRDNYWGQGTQVTVSS	high polyreactivity
QVQLVESVGGLVQAGGSLRLSCAASGFTFGRYAMGWYRQAPGKERELVAAISFSGGRTYYADSVKGRFTISRDNAKNTVYLQMNSLKPEDTAVYYCAARRRQEHVGRSSYARYDYWGQGTQVTVSS	high polyreactivity
QVQLVESVGGLVQAGGSLRLSCAASGFTFRHYVMGWYRQQPGKERELVAAIDVRGGSTYYADSVKGRFTISRDNAKNTVYLQMNSLKPEDTAVYYCAKRLIPRLPNLQKMDYWGQGTQVTVSS	low polyreactivity
QVQLVESVGGLVQAGGSLRLSCAASGFTFVSNAMGWDRQEPGKERELVAAISTGGRTYYADSVKGRFTISRDNAKNTVYLQMNSLKTEDTAFYYCNARYGLRYVRYGEMDYWGQGTQVTVSS	high polyreactivity
QVQLVESVGGLVQAGGSLRLSCAASGFTFYGYAMGWYRQAPGKERELVAAITSGGITNYADSVKGRFTISRDNAKNTVYLQMNSLKPEDTAVYYCNVKRRVSGYYGYKYYYWGQGTQVTVSS	high polyreactivity
QVQLVESVGGLVQAGGSLRLSCAASGFTFYRYAMGWYRQAPGKERELVAAISWSGGSTYYADSVKGRFTISRDNAKNTVYLQMNSLKPEDTAVYYCAARGGYYDYYYWGQGTQVTVSS	high polyreactivity
